Assay results from PMC11101322, “VvWRKY5 positively regulates wounding-induced anthocyanin accumulation in grape by interplaying with VvMYBA1 and promoting jasmonic acid biosynthesis”.

T1: VvWRKY5-HIS (Vitis vinifera, UniProt F6HUN4 7-329)
T1 sequence: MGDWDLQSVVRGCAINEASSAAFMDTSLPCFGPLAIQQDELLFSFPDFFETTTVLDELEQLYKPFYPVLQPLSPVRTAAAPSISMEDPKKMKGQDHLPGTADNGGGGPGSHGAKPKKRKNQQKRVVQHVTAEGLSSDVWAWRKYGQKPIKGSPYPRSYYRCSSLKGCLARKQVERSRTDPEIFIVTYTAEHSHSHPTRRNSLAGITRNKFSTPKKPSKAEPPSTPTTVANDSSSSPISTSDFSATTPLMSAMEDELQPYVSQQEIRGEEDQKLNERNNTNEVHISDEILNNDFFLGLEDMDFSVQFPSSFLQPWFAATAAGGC

T2: VvMYBA1-HIS (Vitis vinifera, UniProt Q6L9M9 1-250)
T2 sequence: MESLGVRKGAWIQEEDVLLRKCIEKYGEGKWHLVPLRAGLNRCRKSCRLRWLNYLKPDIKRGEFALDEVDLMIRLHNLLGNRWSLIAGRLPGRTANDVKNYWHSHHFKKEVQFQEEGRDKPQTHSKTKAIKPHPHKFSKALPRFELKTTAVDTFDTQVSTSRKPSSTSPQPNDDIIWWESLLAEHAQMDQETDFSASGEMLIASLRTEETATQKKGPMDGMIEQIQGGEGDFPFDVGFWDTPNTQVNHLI


Tests used:
[1] = target: T1, VvWRKY5-HIS; assay: EMSA; LightShift Chemiluminescent EMSA system; buffer, salt, pH and temperature not stated; conditions: protein: recombinant, tags: His (pET-32a fusion), blunt
[2] = target: T2, VvMYBA1-HIS; assay: as above; conditions: protein: recombinant; tags: His (pET-32a fusion); label: biotin; blunt

| Binder | binding result [1] | binding result [2] | binding result ([1]; label: biotin) |
| --- | --- | --- | --- |
| VvLOX mutant probe (dsDNA) DNA 1: ACCAGCCAATGGAAAATAGCGAAAATACCTAGTCTATTCC DNA 2: GGAATAGACTAGGTATTTTCGCTATTTTCCATTGGCTGGT | no binding | – | – |
| VvUFGT probe (dsDNA) DNA 1: GGATGACAACCCCCATGCAGTTGCCACTCTCACAACCCCC DNA 2: GGGGGTTGTGAGAGTGGCAACTGCATGGGGGTTGTCATCC | – | binds | no binding |
